The results in this text go back to paper PMC10470887.

For this assay, the target named is SpGrx3 R47F mutant (Sphingomonas sp. PAMC 26621). Nature of the assay: SEC; Superdex 200 prep grade XK16 column; 50 mM Tris·HCl, 50 mM NaCl, pH 8.0; molecular weight against a protein standard mix. On the technique in general: In gel filtration, larger molecules generally elute earlier.

For SpGrx3 R47F mutant (enzyme), the stoichiometry N (commonly a count of units in the complex or per binding partner) came to 2.
